Reference: US20160304856A1 (AVANTGEN, published 2016)

Target: T1, Prostate-Specific Antigen (PSA) (human, UniProt P07288 25-261)
T1 construct: Used biotinylated or PE-labelled in flow cytometry and coated on plates in ELISA; also called PSA antigen
Test: method and antibody format not stated

T1 sequence (P07288 25-261 limits assumed): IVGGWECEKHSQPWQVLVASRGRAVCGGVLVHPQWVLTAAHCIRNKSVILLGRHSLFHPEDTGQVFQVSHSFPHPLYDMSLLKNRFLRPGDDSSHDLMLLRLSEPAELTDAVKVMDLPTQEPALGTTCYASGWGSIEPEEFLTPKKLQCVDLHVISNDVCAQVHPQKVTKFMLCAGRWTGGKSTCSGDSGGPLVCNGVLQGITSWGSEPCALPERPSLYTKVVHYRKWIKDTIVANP

B1: novel anti-PSA antibody (antibody, V domains shown)
VH: EVQLLESGGGLVQPGGSLRLSCAASGFTVSNYAMSWVRQAPGKGLEWVGDIYPTSGYTDYADSVKGRFTISRDNSKNTLYLQMNSLRAEDTAVYYCARWGYDYKYVASEGSWLFDYWGQGTLVTVSS
VL: DIQMTQSPSSLSASVGDRVTITCRASQVSSTSLNWYQQKPGKAPKLLIYGASNLASGVPSRFSGSGSGTDFTLTISSLQPEDFATYYCQQYGHPPYTFGQGTKVEIK
notes: Identified from a single chain library
Q: How did the Kd turn out when B1 was run?
A: 0.08 nM
